Results on one substance are retold here after publication PMC11445563.

In test [1] the target is Flag-tagged human melanocortin-3 receptor (MC3R) on HEK293T cells (human) (UniProt P41968).
The target in test [2] is Flag-tagged human melanocortin-5 receptor (MC5R) on HEK293T cells (human) (UniProt P33032).
Sequence of UniProt P33032 (P33032 whole entry): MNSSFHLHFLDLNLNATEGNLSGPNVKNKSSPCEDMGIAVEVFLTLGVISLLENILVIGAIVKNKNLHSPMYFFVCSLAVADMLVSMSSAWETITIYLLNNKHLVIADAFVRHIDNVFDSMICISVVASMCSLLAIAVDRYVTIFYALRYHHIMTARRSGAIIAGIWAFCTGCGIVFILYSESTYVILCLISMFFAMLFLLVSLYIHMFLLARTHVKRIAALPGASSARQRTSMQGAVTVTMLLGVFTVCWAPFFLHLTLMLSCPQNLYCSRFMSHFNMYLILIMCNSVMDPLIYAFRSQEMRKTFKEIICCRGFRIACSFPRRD

Sequence of UniProt P41968 (P41968 whole entry): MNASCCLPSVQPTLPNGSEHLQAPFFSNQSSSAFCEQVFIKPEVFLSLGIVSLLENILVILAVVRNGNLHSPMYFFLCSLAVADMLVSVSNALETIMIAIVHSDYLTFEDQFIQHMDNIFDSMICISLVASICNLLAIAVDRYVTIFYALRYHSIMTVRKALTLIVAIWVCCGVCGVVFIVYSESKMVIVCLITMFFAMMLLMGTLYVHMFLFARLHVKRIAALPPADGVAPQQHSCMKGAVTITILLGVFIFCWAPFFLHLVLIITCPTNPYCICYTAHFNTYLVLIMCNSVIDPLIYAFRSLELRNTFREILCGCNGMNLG

On to setmelanotide (peptide), for which, in test [1], the cAMP signaling (GloSensor), HEK293 cells with human MC3R, EC50 worked out at 2.1 nM. For the same substance, the cAMP signaling (GloSensor), HEK293 cells with human MC5R, EC50 in test [2] was 451 nM.
